From patent US20230159662A1 (Kyowa Kirin, published 2023)

B1: human IgG1 anti-human CCR4 antibody (KM2160), S298A/E333A/K334A (AAA) (antibody)
heavy: EVQLVESGGDLMKPGGSLKISCAASGFIFSNYGMSWVRQTPDMRLEWVATISSASTYSYYPDSVKGRFTISRDNAENSLYLQMNSLRSEDTGIYYCGRHSDGNFAFGYWGRGTLVTVSAASTKGPSVFPLAPSSKSTSGGTAALGCLVKDYFPEPVTVSWNSGALTSGVHTFPAVLQSSGLYSLSSVVTVPSSSLGTQTYICNVNHKPSNTKVDKKVEPKSCDKTHTCPPCPAPELLGGPSVFLFPPKPKDTLMISRTPEVTCVVVDVSHEDPEVKFNWYVDGVEVHNAKTKPREEQYNATYRVVSVLTVLHQDWLNGKEYKCKVSNKALPAPIAATISKAKGQPREPQVYTLPPSRDELTKNQVSLTCLVKGFYPSDIAVEWESNGQPENNYKTTPPVLDSDGSFFLYSKLTVDKSRWQQGNVFSCSVMHEALHNHYTQKSLSLSPGK
light: DVLMTQTPLSLPVSLGDQASISCRSSRNIVHINGDTYLEWYLQRPGQSPKLLIYKVSNRFSGVPDRFSGSGSGTDFTLKISRVEAEDLGVYYCFQGSLLPWTFGGGTRLEIRRTVAAPSVFIFPPSDEQLKSGTASVVCLLNNFYPREAKVQWKVDNALQSGNSQESVTEQDSKDSTYSLSSTLTLSKADYEKHKVYACEVTHQGLSSPVTKSFNRGEC
B2: human IgG1 anti-human CCR4 antibody (KM2160), S239D/I332E (DE) (antibody)
heavy: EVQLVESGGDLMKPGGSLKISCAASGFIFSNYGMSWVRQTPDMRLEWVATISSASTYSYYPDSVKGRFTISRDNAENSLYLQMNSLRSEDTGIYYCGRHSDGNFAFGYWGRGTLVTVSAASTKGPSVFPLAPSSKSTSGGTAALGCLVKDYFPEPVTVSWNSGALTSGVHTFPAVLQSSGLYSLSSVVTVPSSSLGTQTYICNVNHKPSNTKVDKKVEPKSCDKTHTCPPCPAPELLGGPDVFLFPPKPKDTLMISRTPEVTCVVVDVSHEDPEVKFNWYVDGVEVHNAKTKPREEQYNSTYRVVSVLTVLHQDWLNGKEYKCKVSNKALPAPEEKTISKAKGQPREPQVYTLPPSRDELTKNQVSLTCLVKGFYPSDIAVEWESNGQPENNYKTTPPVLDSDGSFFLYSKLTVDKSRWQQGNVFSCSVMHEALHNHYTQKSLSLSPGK
light: DVLMTQTPLSLPVSLGDQASISCRSSRNIVHINGDTYLEWYLQRPGQSPKLLIYKVSNRFSGVPDRFSGSGSGTDFTLKISRVEAEDLGVYYCFQGSLLPWTFGGGTRLEIRRTVAAPSVFIFPPSDEQLKSGTASVVCLLNNFYPREAKVQWKVDNALQSGNSQESVTEQDSKDSTYSLSSTLTLSKADYEKHKVYACEVTHQGLSSPVTKSFNRGEC
B3: human IgG1 anti-human CCR4 antibody (KM2160), S239D/A330F (antibody)
heavy: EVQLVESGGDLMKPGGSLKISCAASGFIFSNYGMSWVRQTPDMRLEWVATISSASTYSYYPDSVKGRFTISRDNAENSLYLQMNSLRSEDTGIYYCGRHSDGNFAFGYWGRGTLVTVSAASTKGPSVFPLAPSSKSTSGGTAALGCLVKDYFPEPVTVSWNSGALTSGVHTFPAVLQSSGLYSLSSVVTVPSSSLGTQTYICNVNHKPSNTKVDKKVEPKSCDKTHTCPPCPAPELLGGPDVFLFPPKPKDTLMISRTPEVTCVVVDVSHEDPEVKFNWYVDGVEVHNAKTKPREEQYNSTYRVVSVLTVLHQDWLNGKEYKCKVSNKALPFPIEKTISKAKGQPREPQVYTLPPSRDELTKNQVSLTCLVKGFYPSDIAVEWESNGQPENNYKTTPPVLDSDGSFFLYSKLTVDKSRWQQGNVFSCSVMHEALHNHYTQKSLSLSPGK
light: DVLMTQTPLSLPVSLGDQASISCRSSRNIVHINGDTYLEWYLQRPGQSPKLLIYKVSNRFSGVPDRFSGSGSGTDFTLKISRVEAEDLGVYYCFQGSLLPWTFGGGTRLEIRRTVAAPSVFIFPPSDEQLKSGTASVVCLLNNFYPREAKVQWKVDNALQSGNSQESVTEQDSKDSTYSLSSTLTLSKADYEKHKVYACEVTHQGLSSPVTKSFNRGEC
B4: human IgG1 anti-human CCR4 antibody (KM2160), S239D/K326T (antibody)
heavy: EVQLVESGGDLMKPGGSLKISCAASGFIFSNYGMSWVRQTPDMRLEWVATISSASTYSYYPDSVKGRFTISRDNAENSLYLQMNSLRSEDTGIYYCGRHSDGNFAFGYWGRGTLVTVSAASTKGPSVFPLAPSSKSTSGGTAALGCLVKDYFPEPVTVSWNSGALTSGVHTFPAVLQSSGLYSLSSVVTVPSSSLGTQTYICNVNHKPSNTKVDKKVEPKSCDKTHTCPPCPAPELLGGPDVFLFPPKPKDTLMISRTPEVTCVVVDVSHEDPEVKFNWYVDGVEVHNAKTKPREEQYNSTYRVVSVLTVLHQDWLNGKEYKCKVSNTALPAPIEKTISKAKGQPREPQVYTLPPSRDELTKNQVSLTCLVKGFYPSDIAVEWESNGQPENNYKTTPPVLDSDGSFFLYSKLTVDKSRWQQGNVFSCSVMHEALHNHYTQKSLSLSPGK
light: DVLMTQTPLSLPVSLGDQASISCRSSRNIVHINGDTYLEWYLQRPGQSPKLLIYKVSNRFSGVPDRFSGSGSGTDFTLKISRVEAEDLGVYYCFQGSLLPWTFGGGTRLEIRRTVAAPSVFIFPPSDEQLKSGTASVVCLLNNFYPREAKVQWKVDNALQSGNSQESVTEQDSKDSTYSLSSTLTLSKADYEKHKVYACEVTHQGLSSPVTKSFNRGEC
B5: human IgG1 anti-human CCR4 antibody (KM2160), S298A/E333A/K334A (AAA)/P247L (antibody)
heavy: EVQLVESGGDLMKPGGSLKISCAASGFIFSNYGMSWVRQTPDMRLEWVATISSASTYSYYPDSVKGRFTISRDNAENSLYLQMNSLRSEDTGIYYCGRHSDGNFAFGYWGRGTLVTVSAASTKGPSVFPLAPSSKSTSGGTAALGCLVKDYFPEPVTVSWNSGALTSGVHTFPAVLQSSGLYSLSSVVTVPSSSLGTQTYICNVNHKPSNTKVDKKVEPKSCDKTHTCPPCPAPELLGGPSVFLFPPKLKDTLMISRTPEVTCVVVDVSHEDPEVKFNWYVDGVEVHNAKTKPREEQYNATYRVVSVLTVLHQDWLNGKEYKCKVSNKALPAPIAATISKAKGQPREPQVYTLPPSRDELTKNQVSLTCLVKGFYPSDIAVEWESNGQPENNYKTTPPVLDSDGSFFLYSKLTVDKSRWQQGNVFSCSVMHEALHNHYTQKSLSLSPGK
light: DVLMTQTPLSLPVSLGDQASISCRSSRNIVHINGDTYLEWYLQRPGQSPKLLIYKVSNRFSGVPDRFSGSGSGTDFTLKISRVEAEDLGVYYCFQGSLLPWTFGGGTRLEIRRTVAAPSVFIFPPSDEQLKSGTASVVCLLNNFYPREAKVQWKVDNALQSGNSQESVTEQDSKDSTYSLSSTLTLSKADYEKHKVYACEVTHQGLSSPVTKSFNRGEC
B6: human IgG1 anti-human CCR4 antibody (KM2160), S298A/E333A/K334A (AAA)/R293P (antibody)
heavy: EVQLVESGGDLMKPGGSLKISCAASGFIFSNYGMSWVRQTPDMRLEWVATISSASTYSYYPDSVKGRFTISRDNAENSLYLQMNSLRSEDTGIYYCGRHSDGNFAFGYWGRGTLVTVSAASTKGPSVFPLAPSSKSTSGGTAALGCLVKDYFPEPVTVSWNSGALTSGVHTFPAVLQSSGLYSLSSVVTVPSSSLGTQTYICNVNHKPSNTKVDKKVEPKSCDKTHTCPPCPAPELLGGPSVFLFPPKPKDTLMISRTPEVTCVVVDVSHEDPEVKFNWYVDGVEVHNAKTKPPEEQYNATYRVVSVLTVLHQDWLNGKEYKCKVSNKALPAPIAATISKAKGQPREPQVYTLPPSRDELTKNQVSLTCLVKGFYPSDIAVEWESNGQPENNYKTTPPVLDSDGSFFLYSKLTVDKSRWQQGNVFSCSVMHEALHNHYTQKSLSLSPGK
light: DVLMTQTPLSLPVSLGDQASISCRSSRNIVHINGDTYLEWYLQRPGQSPKLLIYKVSNRFSGVPDRFSGSGSGTDFTLKISRVEAEDLGVYYCFQGSLLPWTFGGGTRLEIRRTVAAPSVFIFPPSDEQLKSGTASVVCLLNNFYPREAKVQWKVDNALQSGNSQESVTEQDSKDSTYSLSSTLTLSKADYEKHKVYACEVTHQGLSSPVTKSFNRGEC
B7: human IgG1 anti-human CCR4 antibody (KM2160), S298A/E333A/K334A (AAA)/H268E (antibody)
heavy: EVQLVESGGDLMKPGGSLKISCAASGFIFSNYGMSWVRQTPDMRLEWVATISSASTYSYYPDSVKGRFTISRDNAENSLYLQMNSLRSEDTGIYYCGRHSDGNFAFGYWGRGTLVTVSAASTKGPSVFPLAPSSKSTSGGTAALGCLVKDYFPEPVTVSWNSGALTSGVHTFPAVLQSSGLYSLSSVVTVPSSSLGTQTYICNVNHKPSNTKVDKKVEPKSCDKTHTCPPCPAPELLGGPSVFLFPPKPKDTLMISRTPEVTCVVVDVSEEDPEVKFNWYVDGVEVHNAKTKPREEQYNATYRVVSVLTVLHQDWLNGKEYKCKVSNKALPAPIAATISKAKGQPREPQVYTLPPSRDELTKNQVSLTCLVKGFYPSDIAVEWESNGQPENNYKTTPPVLDSDGSFFLYSKLTVDKSRWQQGNVFSCSVMHEALHNHYTQKSLSLSPGK
light: DVLMTQTPLSLPVSLGDQASISCRSSRNIVHINGDTYLEWYLQRPGQSPKLLIYKVSNRFSGVPDRFSGSGSGTDFTLKISRVEAEDLGVYYCFQGSLLPWTFGGGTRLEIRRTVAAPSVFIFPPSDEQLKSGTASVVCLLNNFYPREAKVQWKVDNALQSGNSQESVTEQDSKDSTYSLSSTLTLSKADYEKHKVYACEVTHQGLSSPVTKSFNRGEC
B8: human IgG1 anti-human CCR4 antibody (KM2160), S298A/E333A/K334A (AAA)/K326T (antibody)
heavy: EVQLVESGGDLMKPGGSLKISCAASGFIFSNYGMSWVRQTPDMRLEWVATISSASTYSYYPDSVKGRFTISRDNAENSLYLQMNSLRSEDTGIYYCGRHSDGNFAFGYWGRGTLVTVSAASTKGPSVFPLAPSSKSTSGGTAALGCLVKDYFPEPVTVSWNSGALTSGVHTFPAVLQSSGLYSLSSVVTVPSSSLGTQTYICNVNHKPSNTKVDKKVEPKSCDKTHTCPPCPAPELLGGPSVFLFPPKPKDTLMISRTPEVTCVVVDVSHEDPEVKFNWYVDGVEVHNAKTKPREEQYNATYRVVSVLTVLHQDWLNGKEYKCKVSNTALPAPIAATISKAKGQPREPQVYTLPPSRDELTKNQVSLTCLVKGFYPSDIAVEWESNGQPENNYKTTPPVLDSDGSFFLYSKLTVDKSRWQQGNVFSCSVMHEALHNHYTQKSLSLSPGK
light: DVLMTQTPLSLPVSLGDQASISCRSSRNIVHINGDTYLEWYLQRPGQSPKLLIYKVSNRFSGVPDRFSGSGSGTDFTLKISRVEAEDLGVYYCFQGSLLPWTFGGGTRLEIRRTVAAPSVFIFPPSDEQLKSGTASVVCLLNNFYPREAKVQWKVDNALQSGNSQESVTEQDSKDSTYSLSSTLTLSKADYEKHKVYACEVTHQGLSSPVTKSFNRGEC
B9: human IgG1 anti-human CCR4 antibody (KM2160), S298A/E333A/K334A (AAA)/P247L/N421K (antibody)
heavy: EVQLVESGGDLMKPGGSLKISCAASGFIFSNYGMSWVRQTPDMRLEWVATISSASTYSYYPDSVKGRFTISRDNAENSLYLQMNSLRSEDTGIYYCGRHSDGNFAFGYWGRGTLVTVSAASTKGPSVFPLAPSSKSTSGGTAALGCLVKDYFPEPVTVSWNSGALTSGVHTFPAVLQSSGLYSLSSVVTVPSSSLGTQTYICNVNHKPSNTKVDKKVEPKSCDKTHTCPPCPAPELLGGPSVFLFPPKLKDTLMISRTPEVTCVVVDVSHEDPEVKFNWYVDGVEVHNAKTKPREEQYNATYRVVSVLTVLHQDWLNGKEYKCKVSNKALPAPIAATISKAKGQPREPQVYTLPPSRDELTKNQVSLTCLVKGFYPSDIAVEWESNGQPENNYKTTPPVLDSDGSFFLYSKLTVDKSRWQQGKVFSCSVMHEALHNHYTQKSLSLSPGK
light: DVLMTQTPLSLPVSLGDQASISCRSSRNIVHINGDTYLEWYLQRPGQSPKLLIYKVSNRFSGVPDRFSGSGSGTDFTLKISRVEAEDLGVYYCFQGSLLPWTFGGGTRLEIRRTVAAPSVFIFPPSDEQLKSGTASVVCLLNNFYPREAKVQWKVDNALQSGNSQESVTEQDSKDSTYSLSSTLTLSKADYEKHKVYACEVTHQGLSSPVTKSFNRGEC
B10: human IgG1 anti-human CCR4 antibody (KM2160), S298A/E333A/R292L/K334E (antibody)
heavy: EVQLVESGGDLMKPGGSLKISCAASGFIFSNYGMSWVRQTPDMRLEWVATISSASTYSYYPDSVKGRFTISRDNAENSLYLQMNSLRSEDTGIYYCGRHSDGNFAFGYWGRGTLVTVSAASTKGPSVFPLAPSSKSTSGGTAALGCLVKDYFPEPVTVSWNSGALTSGVHTFPAVLQSSGLYSLSSVVTVPSSSLGTQTYICNVNHKPSNTKVDKKVEPKSCDKTHTCPPCPAPELLGGPSVFLFPPKPKDTLMISRTPEVTCVVVDVSHEDPEVKFNWYVDGVEVHNAKTKPLEEQYNATYRVVSVLTVLHQDWLNGKEYKCKVSNKALPAPIAETISKAKGQPREPQVYTLPPSRDELTKNQVSLTCLVKGFYPSDIAVEWESNGQPENNYKTTPPVLDSDGSFFLYSKLTVDKSRWQQGNVFSCSVMHEALHNHYTQKSLSLSPGK
light: DVLMTQTPLSLPVSLGDQASISCRSSRNIVHINGDTYLEWYLQRPGQSPKLLIYKVSNRFSGVPDRFSGSGSGTDFTLKISRVEAEDLGVYYCFQGSLLPWTFGGGTRLEIRRTVAAPSVFIFPPSDEQLKSGTASVVCLLNNFYPREAKVQWKVDNALQSGNSQESVTEQDSKDSTYSLSSTLTLSKADYEKHKVYACEVTHQGLSSPVTKSFNRGEC

target: human CD16a (Val type) stably expressed on NK-92 cells (NK-92/CD16 transfectant) (human, UniProt P08637 17-254); assay: cell-based or functional assay
Sequence (P08637 17-254 F176V): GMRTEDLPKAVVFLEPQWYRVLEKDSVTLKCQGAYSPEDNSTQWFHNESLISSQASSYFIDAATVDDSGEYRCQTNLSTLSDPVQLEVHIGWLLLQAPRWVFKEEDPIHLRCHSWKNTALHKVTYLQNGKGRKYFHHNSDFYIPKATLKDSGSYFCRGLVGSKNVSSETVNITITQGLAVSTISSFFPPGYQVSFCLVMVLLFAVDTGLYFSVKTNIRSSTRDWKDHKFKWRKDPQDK

Q: How did the “relative ADCC activity (AAA = 100)” value turn out when B1 was run?
A: 100 relative, AAA at 0.1 µg/mL = 100

Q: B2 was tested. Which “relative ADCC activity (AAA = 100)” value did it give?
A: 201 relative, AAA at 0.1 µg/mL = 100

Q: With B3 as the binder, how does the “relative ADCC activity (AAA = 100)” value read?
A: 161 relative, AAA at 0.1 µg/mL = 100

Q: With B4 as the binder, how does the “relative ADCC activity (AAA = 100)” value read?
A: 179 relative, AAA at 0.1 µg/mL = 100

Q: B5 was tested. Which “relative ADCC activity (AAA = 100)” value did it give?
A: 160 relative, AAA at 0.1 µg/mL = 100

Q: B6 was tested. Which “relative ADCC activity (AAA = 100)” value did it give?
A: 125 relative, AAA at 0.1 µg/mL = 100

Q: How did the “relative ADCC activity (AAA = 100)” value turn out when B7 was run?
A: 164 relative, AAA at 0.1 µg/mL = 100

Q: How did the “relative ADCC activity (AAA = 100)” value turn out when B8 was run?
A: 136 relative, AAA at 0.1 µg/mL = 100

Q: For B9, which “relative ADCC activity (AAA = 100)” value is on record?
A: 175 relative, AAA at 0.1 µg/mL = 100

Q: With B10 as the binder, how does the “relative ADCC activity (AAA = 100)” value read?
A: 163 relative, AAA at 0.1 µg/mL = 100
